Source: the supplement of paper PMC9170038

System: MS2 coat protein
Experiment: apparent KD of MS2 coat protein; designed switch direction (-1 OFF switch, 1 ON switch): -1; higher = weaker reporter binding
How it was run: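 Designed RNA switches were transcribed on Illumina chips by stalled E. coli RNA polymerase and titrated with SNAP-549-labelled MS2 coat protein from 0.7 or 1.5 nM, doubling to 3 µM. Step length ran from 0.8–1.5 h at the lowest concentration to 10–20 min at the highest. The apparent KD is the median over clusters for each design, from curve-fitted normalised cluster fluorescence.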

[1] = input ligand: microRNA oligo, concentration not stated
[2] = Eterna round: R95, input ligand: FMN 200 uM
[3] = Eterna round: R95, input ligand: microRNA oligo, concentration not stated
[4] = Eterna round: R95, input ligand: none

Sequence	apparent KD of MS2 coat protein [1] [nM]	apparent KD of MS2 coat protein (input ligand: FMN 200 uM) [nM]	apparent KD of MS2 coat protein (input ligand: none) [nM]	apparent KD of MS2 coat protein [2] [nM]	apparent KD of MS2 coat protein [3] [nM]	apparent KD of MS2 coat protein [4] [nM]
UUGUUAUAUGUAGGAUAUGCAUAUUAUUAUUAUGCAGAAGGACAUGAGGAUCACCCAUGUAUGUUGUUGUUAUAUAUUAUAUAU [Title] (Eterna round: R96, puzzle: Exclusion NG 1)	17.9	–	–	–	–	–
UUGUUAUAUGUAGGAUAUGCGUAUUAUUAUUAUGCAGAAGGACAUGAGGAUCACCCAUGUAUGUUGUUGUUAUAUAUUAUAUAU [Title] (Eterna round: R96, puzzle: Exclusion NG 1)	18.1	–	–	–	–	–
UUGUUAUAUGUAGGAUAUGCGUAUUGUUAUUAUGCAGAAGGACAUGAGGAUCACCCAUGUAUAUUAUUAUUAUAUAUUAUAUAU [Title] (Eterna round: R96, puzzle: Exclusion NG 1)	22.2	87.8	27.4	–	–	–
UUGUUCCGUGUAGGAUAUUGGUCUCCCUCGGGCCGAGAAGGACAUGAGGAUCACCCAUGUAUGCUAUUAUCGCGCGUGGCGCAU [Design 92] (Eterna round: R96, puzzle: Exclusion NG 1)	48.5	209	58.9	–	–	–
UUGUUGUAUGUAGGAUAUGCAUAUUGUUAUUAUGCAGAAGGACAUGAGGAUCACCCAUGUAUAUUAUUAUUAUAUGUUAUAUAU [Title] (Eterna round: R96, puzzle: Exclusion NG 1)	17.9	–	–	–	–	–
UUGUUGUAUGUAGGAUAUGCAUAUUGUUAUUAUGCAGAAGGACAUGAGGAUCACCCAUGUAUGUUAUUAUUAUGUGUUAUGUGU [Title] (Eterna round: R96, puzzle: Exclusion NG 1)	30.3	–	–	–	–	–
UUGUUGUAUGUAGGAUAUGCGUAUUGUUAUUAUGCAGAAGGACAUGAGGAUCACCCAUGUAUAUUAUUAUUAUAUAUUAUAUAU [Title] (Eterna round: R96, puzzle: Exclusion NG 1)	20.1	–	–	–	–	–
UUGUUUUCCGCAGGAUAUGCUCCUCCAUUACUAGCAGAAGGGCGUUGAACAUGAGGAUCACCCAUGUAUGUAAUUGCUUAUUGC [JR_ExcNG1_Sub073] (Eterna round: R96, puzzle: Exclusion NG 1)	14.8	19.7	18.9	–	–	–
UUUAAACAUGAGGAUCACCCAUGUUAGGAUAUACGAAUGCAGACACACACGGAUGCAAGUAGAAGGAACCAUGC [Design #8] (Eterna round: R97, puzzle: Exclusion 1)	–	44.1	44.1	–	–	–
UUUAAUCGUGACAUGGGUGACAUGAGGAUCACCCAUGUCACAAGCUUCUUGCUCGUCUUAUAAUUAACCCAUGUCAC [LRO Sensor-off var1-12 mod of Stov1-13-A1 by Brourd] (Eterna round: R97, puzzle: Sensor, turn-off variant 1)	–	18.8	18.3	–	–	–
UUUAAUUUUUUUUUUUUACAAGCUUUUUGCUCGUCUUAUACAUGAGGAUCACCCAUGUAAAUGGGAGAUAAAUUAUC [JMF 17] (puzzle: Sensor v3, turn-off variant 2)	–	–	–	95.9	52.4	92.3
UUUAAUUUUUUUUUUUUACAAGCUUUUUGCUCGUCUUAUACAUGAGGAUCACCCAUGUAAAUGGGAGGUAAAUUAUC [JMF 71] (puzzle: Sensor v3, turn-off variant 2)	–	–	–	80.7	133	113
UUUAAUUUUUUUUUUUUACAAGCUUUUUGCUCGUCUUAUACAUGAGGAUCACCCAUGUAGAUGGAGGGUAAAUUAUC [JMF 86] (puzzle: Sensor v3, turn-off variant 2)	–	–	–	17.4	27.9	14.5
UUUAAUUUUUUUUUUUUACAAGCUUUUUGCUCGUCUUAUACAUGAGGAUCACCCAUGUAGAUGGGAGAUAAAUUAUC [JMF 20] (puzzle: Sensor v3, turn-off variant 2)	–	–	–	33.8	85.3	40.5
UUUAAUUUUUUUUUUUUACAAGCUUUUUGCUCGUCUUAUACAUGAGGAUCACCCAUGUAGAUGGGAGGUAAAUUAUC [JMF 75] (puzzle: Sensor v3, turn-off variant 2)	–	–	–	29.1	160	25.7
UUUAAUUUUUUUUUUUUACAAGCUUUUUGCUCGUCUUAUACAUGAGGAUCACCCAUGUAGGUGAGAAAUGAAUUAUC [JMF 94] (puzzle: Sensor v3, turn-off variant 2)	–	–	–	26.5	152	29.5
UUUAAUUUUUUUUUUUUACAAGCUUUUUGCUCGUCUUAUACAUGAGGAUCACCCAUGUGAAUGAGGGAUAAAUUAUC [JMF 39] (puzzle: Sensor v3, turn-off variant 2)	–	–	–	13.5	14.3	11.9
UUUAAUUUUUUUUUUUUACAAGCUUUUUGCUCGUCUUAUACAUGAGGAUCACCCAUGUGAAUGGGAAAUGAAUUAUC [JMF 96] (puzzle: Sensor v3, turn-off variant 2)	–	–	–	112	268	132
UUUAAUUUUUUUUUUUUACAAGCUUUUUGCUCGUCUUAUACAUGAGGAUCACCCAUGUGGGUAGGAGGUAAAUUAUC [JMF 72] (puzzle: Sensor v3, turn-off variant 2)	–	–	–	32.5	50.4	35.5
UUUAAUUUUUUUUUUUUACAAGCUUUUUGCUCGUCUUAUACAUGAGGAUCACCCAUGUGGGUGAAAGAUAGAUUGUC [JMF's solution 3] (puzzle: Sensor v3, turn-off variant 2)	–	–	–	87.2	20.4	35.8
UUUACAAGCUAUUGAUCCCACAUGAGGAUCACCCAUGUUGCUGCCGUGAGGUAGCUUUUAACAAUUGCUCGUCUUAU [JL TOV1 3.38] (Eterna round: R97, puzzle: Sensor, turn-off variant 1)	–	424	570	–	–	–
UUUACAAGCUUAAGAUCCCACAUGAGGAUCACCCAUGUUGCUGCCGGUGACGGUAGCAUAACUUAUGCUCGUCUUAU [JL TOV1 3.60] (Eterna round: R97, puzzle: Sensor, turn-off variant 1)	–	177	188	–	–	–
UUUAGUGGUAAGGAUAUCCUUGAGAAAGAAAGAGGAGAAGGUACCACAUGAGGAUCACCCAUGUGGCUCUUUUA [jl-ex6-4.58 Nando mod] (Eterna round: R97, puzzle: Exclusion 6)	–	32.7	18.2	–	–	–
UUUAGUUCAGGAUAUGUAGAUUUUAACAUGAGGAUCACCCAUGUAGAUCCUGAAUUAACUACAGAAGGGAACAUUG [Exclusion 5: 2:b] (puzzle: Exclusion 5)	–	–	–	50.1	18.2	16.5
UUUAUAAUUUCAAUCUUCGCUGGCAAACUUACGCCAGCCACAUGAGGAUCACCCAUGUUUUUUGUUCGUUUUAUUCU [Xeinzarace] (puzzle: Sensor v3, turn-off variant 2)	–	–	–	18.8	49.8	22.6
